Data: article PMC8758478

Key:
[1] = molecular target: recombinant α-secretase N-terminal soluble form of APP695 (sAPPα^695) (human); experiment: other fluorescence titration; native tryptophan fluorescence, excitation 295 nm, change of intensity at 340 nm against Lf concentration, fitted to two independent sites on an acceptor; 96-well quartz microplate
[2] = molecular target: recombinant α-secretase N-terminal soluble form of APP695 (sAPPα^695) (human); experiment: AUC; sedimentation velocity, 50,000 rpm, absorbance at 280 nm, c(S) model (Sedfit); APP 2.5 μM with holo-Lf 2.5, 3.75, 5 μM or apo-Lf 2.5, 12.5 μM; weight average sedimentation coefficients fitted to a two-site binding model

Kd1:1 (first site, two-site model) [1]: 690 nM
Kd1:2 (second site, two-site model) [1]: 9.4 µM
Kd1:1 (first site, two-site binding model) [2]: 620 nM
Kd1:2 (second site, two-site binding model) [2]: 8.2 µM
stoichiometry N (Lf molecules per sAPPα695 molecule) [2]: 2
Substance: holo-lactoferrin (iron-bound form of Lf) (natural protein)
